# Results as given in patent publication US9580508B2, “Bispecific EGFR/c-Met antibodies” (Janssen Biotech, Inc., priority 2012, dated 2017).
# Where a chain is given by its changes, count along the chain named.
# B1: ECB94: bispecific FN3: P54AR4-83v22-(AP)5-P114AR7P94-A3v22, SEQ ID NO: 61 (protein)
# chain: MLPAPKNLVVSEVTEDSARLSWDDPWAFYESFLIQYQESEKVGEAIVLTVPGSERSYDLTGLKPGTEYTVSIYGVHNVYKDTNIRGLPLSAIFTTAPAPAPAPAPLPAPKNLVVSRVTEDSARLSWTAPDAAFDSFWIRYFEFLGSGEAIVLTVPGSERSYDLTGLKPGTEYVVNILGVKGGKISPPLSAIFTT
# modifications: bispecific EGFR/cMet binding molecule
# B2: ECB97: bispecific FN3: P54AR4-83v22-(AP)5-P114AR7P95-C5v2, SEQ ID NO: 64 (protein)
# chain: B1 chain with G178S, K183S
# modifications: bispecific EGFR/cMet binding molecule
# B3: ECB15: bispecific FN3: P54AR4-83v2-(AP)5-P114AR7P94-A3, SEQ ID NO: 57 (protein)
# chain: B1 chain with I84M, L177M
# modifications: bispecific EGFR/cMet binding molecule
# B4: ECB96: bispecific FN3: P54AR4-83v22-(AP)5-P114AR9P122-A7v2, SEQ ID NO: 63 (protein)
# chain: B1 chain with L144V, G145S, S146K, E148D, K183S
# modifications: bispecific EGFR/cMet binding molecule
# B5: ECB106: bispecific FN3: P54AR4-83v23-(AP)5-P114AR7P94-A3v22, SEQ ID NO: 65 (protein)
# chain: B1 chain with W26H
# modifications: bispecific EGFR/cMet binding molecule
# B6: ECB95: bispecific FN3: P54AR4-83v22-(AP)5-P114AR9P121-A6v2, SEQ ID NO: 62 (protein)
# chain: B1 chain with L144V, K183S
# modifications: bispecific EGFR/cMet binding molecule
# B7: ECB109: bispecific FN3: P54AR4-83v23-(AP)5-P114AR7P95-C5v2, SEQ ID NO: 68 (protein)
# chain: B1 chain with W26H, G178S, K183S
# modifications: bispecific EGFR/cMet binding molecule
# B8: ECB108: bispecific FN3: P54AR4-83v23-(AP)5-P114AR9P122-A7v2, SEQ ID NO: 67 (protein)
# chain: B1 chain with W26H, L144V, G145S, S146K, E148D, K183S
# modifications: bispecific EGFR/cMet binding molecule
# B9: ECB107: bispecific FN3: P54AR4-83v23-(AP)5-P114AR9P121-A6v2, SEQ ID NO: 66 (protein)
# chain: B1 chain with W26H, L144V, K183S
# modifications: bispecific EGFR/cMet binding molecule
# B10: P54CR4-31: EGFR-binding FN3 domain, SEQ ID NO: 26 (protein)
# chain: LPAPKNLVVSEVTEDSLRLSWTAPDAAFDSFLIQYQESEKVGEAINLTVPGSERSYDLTGLKPGTEYTVSIYGVLGSYVFEHDVMLPLSAEFTT
# modifications: EGFR binding FN3 domain
# B11: P54CR4-31v2: stabilized EGFR-binding FN3 domain, SEQ ID NO: 28 (protein)
# chain: B10 chain with L17A, N46V, E91I
# modifications: EGFR binding FN3 domain
# B12: P114AR7P92-G8: c-Met-binding FN3 domain, SEQ ID NO: 36 (protein)
# chain: LPAPKNLVVSRVTEDSARLSWTAPDAAFDSFVIRYFEFLGSGEAIVLTVPGSERSYDLTGLKPGTEYVVQILGVKGGYISIPLSAIFTT
# modifications: c-Met binding FN3 domain
# B13: P114AR7P95-G7: c-Met-binding FN3 domain, SEQ ID NO: 48 (protein)
# chain: B12 chain with V32W, F38L, G40S, S41T, Q70N, L72M, Y78S, I81P
# modifications: c-Met binding FN3 domain
# B14: P114AR7P93-H9: c-Met-binding FN3 domain, SEQ ID NO: 40 (protein)
# chain: B12 chain with V32W, L72I, Y78H, I81L
# modifications: c-Met binding FN3 domain
# B15: P114AR7P94-A3: c-Met-binding FN3 domain, SEQ ID NO: 41 (protein)
# chain: B12 chain with V32W, Q70N, L72M, Y78K, I81P
# modifications: c-Met binding FN3 domain
# B16: P114AR7P92-F6: c-Met-binding FN3 domain, SEQ ID NO: 35 (protein)
# chain: B12 chain with V32W, Q70N, Y78G, I79L, I81V
# modifications: c-Met binding FN3 domain
# B17: P114AR7P95-H8: c-Met-binding FN3 domain, SEQ ID NO: 49 (protein)
# chain: B12 chain with V32W, L39V, G40S, S41K, Q70N, L72M, Y78S, I81P
# modifications: c-Met binding FN3 domain
# B18: P114AR7P93-G8: c-Met-binding FN3 domain, SEQ ID NO: 39 (protein)
# chain: B12 chain with V32W, G60D, V68G, Q70T, L72N, Y78R, I79V, I81T
# modifications: c-Met binding FN3 domain
# B19: P114AR5P74-A5: c-Met-binding FN3 domain, SEQ ID NO: 32 (protein)
# chain: B12 chain with V32W, F36D, F38V, L39V, G40V, S41G, V68Y, Q70N, Y78S, I81V
# modifications: c-Met binding FN3 domain
# B20: P114AR7P94-E5: c-Met-binding FN3 domain, SEQ ID NO: 42 (protein)
# chain: B12 chain with V32W, V68A, Q70N, L72M, Y78R, I79V, I81V
# modifications: c-Met binding FN3 domain
# B21: P114AR7P95-F10: c-Met-binding FN3 domain, SEQ ID NO: 47 (protein)
# chain: B12 chain with V32W, L39T, G40T, S41A, Q70N, L72M, Y78S, I81P
# modifications: c-Met binding FN3 domain
# B22: P114AR7P95-D4: c-Met-binding FN3 domain, SEQ ID NO: 45 (protein)
# chain: B12 chain with V32W
# modifications: c-Met binding FN3 domain
# B23: P114AR7P92-H5: c-Met-binding FN3 domain, SEQ ID NO: 37 (protein)
# chain: B12 chain with V32W, F36L, G40L, S41G, L72M, Y78T, I79V, I81P
# modifications: c-Met binding FN3 domain
# B24: P54AR4-83: EGFR-binding FN3 domain, SEQ ID NO: 25 (protein)
# chain: LPAPKNLVVSEVTEDSLRLSWDDPWAFYESFLIQYQESEKVGEAINLTVPGSERSYDLTGLKPGTEYTVSIYGVHNVYKDTNMRGLPLSAEFTT
# modifications: EGFR binding FN3 domain
# B25: P54AR4-37v2: stabilized EGFR-binding FN3 domain, SEQ ID NO: 29 (protein)
# chain: B24 chain with D22T, D23W, W25Y, F27D, Y28L, E29D
# modifications: EGFR binding FN3 domain
# B26: P54AR4-37: EGFR-binding FN3 domain, listed with SEQ ID NO: 22 in Table 6 (protein)
# chain: B24 chain with D22T, D23W, W25Y, F27D, Y28L, E29D
# modifications: EGFR binding FN3 domain
# System: NCI-H292 cells
# Assay: HGF-induced NCI-H292 cell proliferation
# Format: cell-based, human
# Conditions: read-out: H292-HGF Proliferation inhibition in HGF-induced H292 cells (IC50)
# Source text: The proliferation assay was completed using different combinations EGFR and c-Met binding FN3 domains either as a mixture or linked in a bispecific format. […] This confirmed that the avidity effect observed at the level of the receptors (FIG. 4 and FIG. 5) translates into an improvement in inhibiting cell signaling (Table 12) and cell proliferation (Table 13).
# Select bispecific EGFR/c-Met molecules were characterized for their affinity to both EGFR and c-Met, their ability to inhibit EGFR and c-Met autophosphorylation, and their effect on proliferation of HGF cells. Binding affinity of the bispecific EGFR/c-Met molecules to recombinant EGFR and/or c-Met extracellular domain was further evaluated by surface Plasmon resonance methods using a Proteon Instrument (BioRad) according to protocol described in Example 3.
row,IC50 [nM],Molecule
1,29.6,B1
2,31,B2
3,23,B3
4,9480,B4
5,484,B5
6,383,B6
7,574,B7
8,11400,B8
9,2640,B9

# System: not listed separately
# Assay: Differential scanning calorimetry in PBS (thermal stability)
# Format: physicochemical
# Conditions: DSC in PBS
# Source text: A subset of the EGFR binding FN3 domains was engineered to increase the conformational stability of each molecule. […] The new mutants, P54AR5-83v2, P54CR431-v2, and P54AR4-37v2 were expressed and purified as described above. Differential scanning calorimetry in PBS was used to assess the stability of each mutant in order to compare it to that of the corresponding parent molecule.
# Thermal Stability of c-Met-binding FN3 Domains Differential Scanning Calorimetry in PBS was Used to Assess the Stability of Each FN3 Domain.
Molecule,Tm (° C.) [°C],"Thermal Stability (Tm, C.) [C.]"
B10,60.9,
B11,78.9,
B12,,90.9
B13,,87.2
B14,,88.2
B15,,86.2
B16,,76.8
B17,,83
B18,,76.8
B19,,74.1
B20,,80
B21,,85.2
B22,,85.3
B23,,87
B24,50.6,
B25,64.2,
B26,45.9,
